Measured values: patent publication US20260250421A1 (BIOCYTOGEN PHARMACEUTICALS BEIJING, published 2026)

Biological target: T1, TROP2 on NCI-H1975 and NUGC-4 tumor cells (UniProt P09758 27-323, limits assumed)
T1 construct: whole, on cells; species of the lines is not worded there; also called TROP2 on cells
T1 sequence (looked up): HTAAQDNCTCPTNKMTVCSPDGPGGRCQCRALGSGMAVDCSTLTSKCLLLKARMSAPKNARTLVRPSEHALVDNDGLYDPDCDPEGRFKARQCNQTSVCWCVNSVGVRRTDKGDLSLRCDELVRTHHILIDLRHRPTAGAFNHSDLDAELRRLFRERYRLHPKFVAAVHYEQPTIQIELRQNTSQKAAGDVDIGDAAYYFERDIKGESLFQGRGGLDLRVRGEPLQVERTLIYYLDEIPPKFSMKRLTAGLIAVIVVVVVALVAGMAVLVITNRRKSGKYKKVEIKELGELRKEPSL
Experiment: flow cytometry on NUGC-4 cells (only TROP2 expression), anti-hIgG-Fc Alexa Fluor 647 secondary antibody, MFI [B]
Description: This experiment was performed to test the binding activities of the anti-PTK7/TROP2 bispecific antibodies to different tumor cell lines. NCI-H1975 cells or NUGC-4 cells were transferred to a 96-well plate at a density of 5×10⁴ cells/well respectively. The sample antibody was added to the 96-well plate, and incubated at 4° C. for 30 min.

B1: 3C4-18E9 (bispecific antibody, human IgG1, V domains shown)
VH 1: QVQLEQSRAEVKKPGESLRISCKGSGYSFTSYWISWVRQMPGKGLEWMGRIDPSDSYTNYNPSFQGHVTISADKSISTAYLQWSSLKASDTAMYYCARRDGSYFDFDYWGQGTLVTVSS
VH 2: QLQLQQSGPGLLKPSETLSLTCTVSGGSISSSYYFWGWIRQPPGKGLEWIGAIYYIGNTHYNPSLKSRVTISIDTSKNQFSLNLNSVTAADTAIYYCARYEDTWNWFDPWGQGTLVTVSS
VL: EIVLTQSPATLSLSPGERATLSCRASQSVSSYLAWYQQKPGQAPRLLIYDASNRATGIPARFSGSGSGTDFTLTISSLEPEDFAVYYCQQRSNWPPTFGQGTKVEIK
notes: which arm carries the knob is stated only for 3C4-6F7; also called anti-PTK7/TROP2 bispecific antibody 3C4-18E9
- EC50 (read off the curve): ~0.6 µg/mL
